Reference: PMC5335568, “Molecular basis for the role of oncogenic histone mutations in modulating H3K36 methylation” (Scientific Reports, 2017)

Molecular target: T1, SET domain of human SETD2 (residue 1435–1711, encompassing the AWS, SET, and post-SET regions) (human, UniProt Q9BYW2 1435-1711)
T1 construct: SETD2, human, residues 1435–1711 (AWS, SET and post-SET regions), in the pET28-MHL vector; The His-tag was not removed for crystallization; A longer construct (1347–1711, 6xHis, Talon beads) was used for the histone methyltransferase assays; also called SETD2 SET domain; recombinant SET domain of SETD2; not shown: His6, N-terminal, kept
T1 sequence (looked up): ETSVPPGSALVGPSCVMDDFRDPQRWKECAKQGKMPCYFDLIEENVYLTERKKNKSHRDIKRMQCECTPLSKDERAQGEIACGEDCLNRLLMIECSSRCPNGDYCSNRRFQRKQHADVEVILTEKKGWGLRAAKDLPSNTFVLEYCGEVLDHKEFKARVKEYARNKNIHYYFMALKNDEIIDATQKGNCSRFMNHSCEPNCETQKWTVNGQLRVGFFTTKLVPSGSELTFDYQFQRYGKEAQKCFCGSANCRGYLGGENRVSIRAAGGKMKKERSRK
Assay: crystal structure; SETD2 (10 mg/ml) incubated with SAM and H3K36M peptide at a molar ratio of 1:10:10; sitting drop, 20 °C, 0.1 M KSCN, 24% PEG 2000 MME; two ternary complexes, with SAM (2.42 Å) and with SAH (2.4 Å)
Details: both partners purified

B1: H3K36M peptide (29-APATGGVMKPHRYRP-43) (peptide)
peptide: APATGGVMKPHRYRP
notes: histone H3 tail, residues 29–43, with K36M; also called H3K36M (29–43) peptide; source: synthetic peptide (Eurogentec for the crystals; Anaspec for the thermal shift assay)
- binding result: binds
